Results reported in US5618790A, “Protease mediated drug delivery system” (Queen's University at Kingston, priority 1994, dated 1997).
Starred links: 1 amine or outer side, 2 acyl side, 3 side chain; linkers in the order of their positions; H or OH if unused. Positions of bridges follow the written chain, without caps; N, C: chain ends. Residues, ends and D or L forms follow the SMILES beside them. Chains are numbered I, II in the order given. X1 = CCC1=C(C)c2cc3[nH]c(cc4nc(cc5[nH]c(cc1n2)c(C)c5CCC(=O)[*:1])C(CCC(=O)[*:2])=C4C)c(C)c3CC

Key:
[1] = Solubility of the purified compound; format: physicochemical
Description: The purified compound was a purple-red powder that was quite soluble in water in neutral pH, in isotonic saline for injection (U.S.P.), and in fresh heparinized human blood and plasma. Aqueous solutions were strongly fluorescent when exposed to 410 nm light.

[2] = Fluorescence in heparinized whole blood and plasma; format: in vitro ADME; conditions: heparinized whole blood and plasma samples; spectrophotofluorometer
Method: Aliquots of the porphyrin compound of Example 1 were added to heparinized whole blood and plasma samples which were then examined by spectrophotofluorometer.

[3] = Toxicity after intraperitoneal injection into mice; format: in vivo; conditions: intraperitoneally, dosages up to 20 mg/kg body weight
Method: The porphyrin compound of Example 1 was injected intraperitoneally into mice at dosages up to 20 mg/kg body weight.

Clostridium perfringens = conditions: mouse, in vivo, 20 mg/kg

## CCC1=C(C)c2cc3[nH]c(cc4nc(cc5[nH]c(cc1n2)c(C)c5CCC(=O)NCC(=O)N1CCC[C@H]1C(=O)N[C@@H](CC(C)C)C(=O)NCC(=O)N1CCC[C@H]1C(=O)N[C@@H](C)C(=O)N[C@@H](CCCCN)C(=O)N[C@@H](CCCCN)C(=O)N[C@@H](CCCCN)C(=O)N[C@@H](CCCCN)C(=O)O)C(CCC(=O)NCC(=O)N1CCC[C@H]1C(=O)N[C@@H](CC(C)C)C(=O)NCC(=O)N1CCC[C@H]1C(=O)N[C@@H](C)C(=O)N[C@@H](CCCCN)C(=O)N[C@@H](CCCCN)C(=O)N[C@@H](CCCCN)C(=O)N[C@@H](CCCCN)C(=O)O)=C4C)c(C)c3CC [porphyrin compound of Example 1, mesoporphyrin IX (Gly--Pro--Leu--Gly--Pro--Ala--Lys--Lys--Lys--Lys)2] (I: GPLGPAKKKK-OH / II: GPLGPAKKKK-OH; linker I:N-II:N via X1)
[1]; fresh heparinized human blood and plasma
  solubility: quite soluble
[1]; isotonic saline for injection (U.S.P.)
  solubility: quite soluble
[1]; water in neutral pH
  solubility: quite soluble
[2]
  effect on fluorescence intensity (stability of the collagenase sensitive peptide): No effect on fluorescence intensity
[3]
  toxic effects: No toxic effects were observed
Clostridium perfringens
  increase of porphyrin fluorescence relative to the background fluorescence (factor): three
